Reference: PMC8093899 (iScience, 2021)

B1: human CD146 fragment containing domain 4 and domain 5 (D4-D5, Gln336 to Leu519) (domain or fragment, UniProt P43121 336-519, looked up)
chain: QELLVNYVSDVRVSPAAPERQEGSSLTLTCEAESSQDLEFQWLREETGQVLERGPVLQLHDLKREAGGGYRCVASVPSIPGLNRTQLVNVAIFGPPWMAFKERKVWVKENMVLNLSCEASGHPRPTISWNVNGTASEQDQDPQRVLSTLNVLVTPELLETGVECTASNDLGKNTSILFLELVNL
modifications: two N-glycosylation sites on D4 and D5 seen in the electron density map
B2: HA98 (AA98 mAb mutant H13–112: heavy chain (I28K)/light chain (L51Y)) (antibody, V domains shown)
VH: EVQLLESGAELVRPGASVKLSCKTSGYKFTNYWIHWVKQRSGQGLEWIARIYPGTDITYYNEKFKGKATLTVDKSSSSAYMLLSSLKSEDSSVYFCARSGGYWYFDVWGAGTTVTVSS
VL: ELVMTQSPASLAVSLGQRATISCRASKSVSISGYSYMHWYQQKPGQPPKLYIYLASNLESGVPARFSGSGSGTDFTLNIHPVEEEDAATYYCQHSRELPYTFGGGTKLEIK

Experiments:
SEC = target: the molecule itself; assay: SEC
[1] = target: full-length CD146, wild type, with a FLAG tag or a Myc tag (human, UniProt P43121); assay: co-IP
Sequence of full-length CD146, wild type, with a FLAG tag or a Myc tag (P43121 24-646): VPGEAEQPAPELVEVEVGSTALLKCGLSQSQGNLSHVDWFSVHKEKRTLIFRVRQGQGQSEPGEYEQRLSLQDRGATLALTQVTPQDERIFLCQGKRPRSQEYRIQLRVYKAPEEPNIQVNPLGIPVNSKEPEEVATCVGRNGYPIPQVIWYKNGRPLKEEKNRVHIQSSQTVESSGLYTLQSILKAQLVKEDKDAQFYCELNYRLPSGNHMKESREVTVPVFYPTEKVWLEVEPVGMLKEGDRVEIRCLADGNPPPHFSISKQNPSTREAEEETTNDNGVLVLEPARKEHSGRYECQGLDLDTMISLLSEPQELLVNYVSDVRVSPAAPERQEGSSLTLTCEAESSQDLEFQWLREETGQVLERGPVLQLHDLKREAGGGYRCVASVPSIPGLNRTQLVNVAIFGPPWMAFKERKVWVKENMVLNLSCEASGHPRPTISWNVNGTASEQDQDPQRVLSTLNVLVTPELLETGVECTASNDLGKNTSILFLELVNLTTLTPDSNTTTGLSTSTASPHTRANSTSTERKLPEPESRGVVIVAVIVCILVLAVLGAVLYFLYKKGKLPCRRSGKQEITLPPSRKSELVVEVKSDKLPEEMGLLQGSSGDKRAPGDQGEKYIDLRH

| Binder | stoichiometry N (SEC) | binding result [1] |
| --- | --- | --- |
| B1 | 2 |  |
| B2 |  | binds |
